Results on 3 compounds are retold here after publication PMC11396517, “Differences in the Renal Accumulation of Radiogallium-Labeled (Glu)14 Peptides Containing Different Optical Isomers of Glutamic Acid” (Molecules, 2024).

Where two headings read alike, the source gives them in different places.

A short description of one series: in vivo. Also on record: species or system ddY mice. The note with it: male, ddY, mouse, iv, 37 kBq/100 uL, total radioactivity. The method, then: Biodistribution experiments were performed after an intravenous administration of each tracer solution diluted in saline (37 kBq/100 μL) to 6-week-old male ddY mice (weight, 27–32 g, Japan SLC, Inc., Hamamatsu, Japan). Four mice were sacrificed at each time point for each compound at 10, 60, and 180 min post-injection. The tissues of interest were dissected and weighed. Complete left femurs were isolated as representative bone samples, radioactivity counts were determined using an auto well gamma counter (ARC-7010, ALOKA Co., Ltd.), and counts were corrected for the background radiation and physical decay that occurred during counting.

A short description of series [1]: Hydroxyapatite-binding assay. The note with it: hydroxyapatite beads 1, 2.5, 10, 25 mg/mL in Tris/HCl-buffered saline 50 mM pH 7.4, ligand 19.5 µM, 1 h, room temperature, gamma counter, four samples; Figure 2. On the procedure: Hydroxyapatite-binding assays were performed according to procedures described previously. Briefly, hydroxyapatite beads (Bio-Gel; Bio-Rad, Hercules, CA, USA) were suspended in Tris/HCl-buffered saline (50 mM, pH 7.4) at 1 mg/mL, 2.5 mg/mL, 10 mg/mL, and 25 mg/mL. For the solutions of [^67Ga]Ga-HBED-CC-(D-Glu)14, [^67Ga]Ga-HBED-CC-(DL-Glu)14, and [^67Ga]Ga-HBED-CC-(D-Glu-L-Glu)7, the ligand concentrations were adjusted to 19.5 µM by adding the corresponding HBED-CC conjugated Glu peptides. A solution of each [^67Ga]Ga-HBED-CC-(D-Glu)14, [^67Ga]Ga-HBED-CC-(DL-Glu)14, and [^67Ga]Ga-HBED-CC-(D-Glu-L-Glu)7 (200 µL each) was added to 200 μL of the hydroxyapatite suspension, and the samples were gently shaken for 1 h at room temperature. After centrifugation at 10,000× g for 5 min, the radioactivity of the supernatants was measured using an auto well gamma counter (ARC-7010B, ALOKA Co., Ltd., Tokyo, Japan). […] The ratios of binding were determined as follows:Hydroxyapatite binding (%) = (1 − [sample supernatant radioactivity]/[control supernatant radioactivity]) × 100

For series [2] the following is noted: hydroxyapatite beads; Figure 2; cited from earlier work. The method, then: To determine the affinity of the compounds for hydroxyapatite, the hydroxyapatite-binding assay was performed. The hydroxyapatite-binding rates of [^67Ga]Ga-HBED-CC-(L-Glu)14, [^67Ga]Ga-HBED-CC-(D-Glu)14, [^67Ga]Ga-HBED-CC-(DL-Glu)14, and [^67Ga]Ga-HBED-CC-(D-Glu-L-Glu)7 are illustrated in Figure 2. The binding profiles of each tracer were similar.

For `O=C(O)CCc1ccc(O)c(CN(CCN(CC(=O)O)Cc2cc(CCC(=O)N[C@H](CCC(=O)O)C(=O)N[C@H](CCC(=O)O)C(=O)N[C@H](CCC(=O)O)C(=O)N[C@H](CCC(=O)O)C(=O)N[C@H](CCC(=O)O)C(=O)N[C@H](CCC(=O)O)C(=O)N[C@H](CCC(=O)O)C(=O)N[C@H](CCC(=O)O)C(=O)N[C@H](CCC(=O)O)C(=O)N[C@H](CCC(=O)O)C(=O)N[C@H](CCC(=O)O)C(=O)N[C@H](CCC(=O)O)C(=O)N[C@H](CCC(=O)O)C(=O)N[C@H](CCC(=O)O)C(=O)O)ccc2O)CC(=O)O)c1` [[67Ga]Ga-HBED-CC-(D-Glu)14, metal not drawn], in the series “in vivo”, the tissue uptake dose at 10 min came to 0.57 %ID, the tissue uptake dose at 1 h amounted to 0.51 %ID and the tissue uptake dose at 3 h turned out to be 0.76 %ID. For the same compound, in series [1], the “Hydroxyapatite binding profile (in words)” value is reported as “similar”.

Regarding `O=C(O)CCc1ccc(O)c(CN(CCN(CC(=O)O)Cc2cc(CCC(=O)N[C@H](CCC(=O)O)C(=O)N[C@@H](CCC(=O)O)C(=O)N[C@H](CCC(=O)O)C(=O)N[C@@H](CCC(=O)O)C(=O)N[C@H](CCC(=O)O)C(=O)N[C@@H](CCC(=O)O)C(=O)N[C@H](CCC(=O)O)C(=O)N[C@@H](CCC(=O)O)C(=O)N[C@H](CCC(=O)O)C(=O)N[C@@H](CCC(=O)O)C(=O)N[C@H](CCC(=O)O)C(=O)N[C@@H](CCC(=O)O)C(=O)N[C@H](CCC(=O)O)C(=O)N[C@@H](CCC(=O)O)C(=O)O)ccc2O)CC(=O)O)c1` [[67Ga]Ga-HBED-CC-(D-Glu-L-Glu)7, metal not drawn], in the series “in vivo”, the tissue uptake dose at 10 min stood at 0.32 %ID, the tissue uptake dose at 1 h was determined as 0.84 %ID and the tissue uptake dose at 3 h stood at 0.48 %ID. Besides, the “Hydroxyapatite binding profile (in words)” value in series [1] is given as “similar”.

As to “[^67Ga]Ga-N,N′-bis-[2-hydroxy-5-(carboxyethyl)benzyl]ethylenediamine-N,N′-diacetic acid-conjugated (L-Glu)14 [[^67Ga]Ga-HBED-CC-(L-Glu)14]”, the “Hydroxyapatite binding profile (in words)” value in series [2] is on record as “similar”.
